From patent US10851401B2, “Broth microdilution method for evaluating and determining minimal inhibitory concentration of antibacterial polypeptides” (priority 2016, dated 2020)

Tests used:
S. aureus ATCC 700699 = assay: BMD MIC assay of a single strain in CA-MHB, human blood matrices and supplemented broth
25 S. aureus strains = assay: BMD MIC, validation of the horse serum/DTT method with varied sources, conditions and storage
[1] = clinical grade, recombinantly produced in E. coli; cited from earlier work
Charge (pI) = assay type: physicochemical
30 S. aureus strains = assay: Broth microdilution (BMD) MIC, identification of new testing conditions, panel of 30 strains
[2] = MIC assays under different conditions (FIG. 7)
MRSA strain ATCC 29213 = assay: MIC assays under different conditions (FIG. 7); settings: MHBII alone
S. aureus strains = assay: Standard BMD susceptibility testing, broth versus human blood/serum/plasma; assay type: cell-based
From the text: The supplementation with DTT serves to stabilize lysin polypeptide and enable the use of frozen micro broth dilution panels for MIC determination. DTT is a common reducing agent used to prevent the oxidation and inactivation of enzymes during storage or in the context of in vitro assays.

[3] = system: 223 contemporary clinical MSSA and MRSA strains; assay: First modified (stopgap) BMD method: polypropylene plates, MHBII with 1 mM DTT; assay type: cell-based, Staphylococcus aureus; settings: MHBII supplemented with 1 mM DTT
Experimental: Two modified BMD methods were initially developed to test PlySs2/CF-301. In the first method, the major modifications were that polypropylene plates were used and MHBII was supplemented with 1 mM DTT. DTT (DL-Dithiothreitol) is a common molecular biology reagent used to keep enzymes in a reduced state. […] This procedure was a stop gap because of the use of polypropylene, a remaining disconnect from human blood MIC values, and problems with frozen panels.

[4] = oxidation and inactivation of active-site cysteine thiol in MHB
[5] = Bacterial inoculum 5 × 10^4 CFU/ml
[6] = Bacterial inoculum 5 × 10^5 CFU/ml (first line, r9)
[7] = Bacterial inoculum 5 × 10^5 CFU/ml (second line, r10)
[8] = Bacterial inoculum 5 × 10^6 CFU/ml
[9] = CAMHB source BBL BD (Powder), Freeze/Thaw no
[10] = CAMHB source BBL BD (Powder), Freeze/Thaw yes
[11] = CAMHB source BD (Liquid), Freeze/Thaw no
[12] = CAMHB source BD (Liquid), Freeze/Thaw yes
[13] = CAMHB source Sigma-Aldrich (Powder), Freeze/Thaw no
[14] = CAMHB source Sigma-Aldrich (Powder), Freeze/Thaw yes
[15] = CAMHB source Teknova (Liquid), Freeze/Thaw no
[16] = CAMHB source Teknova (Liquid), Freeze/Thaw yes
[17] = DTT source G-Biosciences (powder), Freeze/Thaw no
[18] = DTT source G-Biosciences (powder), Freeze/Thaw yes
[19] = DTT source Sigma (liquid), Freeze/Thaw no
[20] = DTT source Sigma (liquid), Freeze/Thaw yes
[21] = DTT source Sigma (powder), Freeze/Thaw no
[22] = DTT source Sigma (powder), Freeze/Thaw yes
[23] = Incubation condition: 5% CO^2 (37° C.)
[24] = Incubation condition: Ambient air (30° C.)
[25] = Incubation condition: Ambient air (37° C.)
[26] = horse serum/DTT method, reference value for the modifications tested
[27] = panels stored at −80° C. for 1 day
[28] = panels stored at −80° C. for 3 days
[29] = panels stored at −80° C. for 7 days
[30] = panels stored at −80° C. for 14 days
[31] = panels stored at −80° C. for 60 days
[32] = panels stored at −80° C. for 90 days
[33] = panels stored at −80° C. for 120 days
[34] = panels stored at −80° C. for 180 days
[35] = panels stored at −80° C. for 365 days
[36] = 100% Human Serum, Fresh dilutions
[37] = CAMHB, 0.5 mM DTT, Fresh dilutions
[38] = CAMHB, 25% horse serum, 0.5 mM DTT, Fresh dilutions
[39] = CAMHB, 25% horse serum, 0.5 mM DTT, Thawed
[40] = CAMHB, 25% horse serum, Fresh dilutions

B1: CF-301: bacteriophage lysin polypeptide derived from a Streptococcus suis prophage, amino acid sequence of FIG. 1 / SEQ ID NO: 1; 26 kDa bacteriolytic enzyme (protein, listed as Streptococcus suis)
chain: MTTVNEALNNVRAQVGSGVSVGNGECYALASWYERMISPDATVGLGAGVGWVSGAIGDTISAKNIGSSYNWQANGWTVSTSGPFKAGQIVTLGATPGNPYGHVVIVEAVDGDRLTILEQNYGGKRYPVRNYYSAASYRQQVVHYITPPGTVAQSAPNLAGSRSYRETGTMTVTVDALNVRRAPNTSGEIVAVYKRGESFDYDTVIIDVNGYVWVSYIGGSGKRNYVATGATKDGKRFGNAWGTFK
16 µg/mL: MIC ([2]; MHBII alone)
1 to 16 µg/mL: MIC range [3]
slight trailing effect: trailing effect (MRSA strain ATCC 29213)
0.25-2: Range (25 S. aureus strains; [28]) | Range (25 S. aureus strains; [30]) | Range (25 S. aureus strains; [31]) | Range (25 S. aureus strains; [32]) | Range (25 S. aureus strains; [33]) | Range (25 S. aureus strains; [35]) | Range (30 S. aureus strains; [38]) | Range (30 S. aureus strains; [39])
9.2: pI (Charge (pI))
0.5-8: Range (30 S. aureus strains; CAMHB, 25% horse serum, Thawed)
1 µg/mL: MIC (S. aureus ATCC 700699; human blood) | MIC90 (25 S. aureus strains; [5]) | MIC90 (25 S. aureus strains; [6]) | MIC90 (25 S. aureus strains; [7]) | MIC90 (25 S. aureus strains; [8]) | MIC90 (25 S. aureus strains; [9]) | MIC90 (25 S. aureus strains; [10]) | MIC90 (25 S. aureus strains; [11]) | MIC90 (25 S. aureus strains; [12]) | MIC50 (25 S. aureus strains; [13]) | MIC50 (25 S. aureus strains; [14]) | MIC90 (25 S. aureus strains; [15]) | MIC90 (25 S. aureus strains; [16]) | MIC (25 S. aureus strains; [17]) | MIC (25 S. aureus strains; [18]) | MIC (25 S. aureus strains; [19]) | MIC (25 S. aureus strains; [20]) | MIC (25 S. aureus strains; [21]) | MIC (25 S. aureus strains; [22]) | MIC90 (25 S. aureus strains; Final pH: Adjusted to pH 7.0) | MIC50 (25 S. aureus strains; Final pH: Adjusted to pH 8.0) | MIC90 (25 S. aureus strains; Final pH: Adjusted to pH 8.0) | MIC90 (25 S. aureus strains; Final pH: Unadjusted (pH 7.4)) | MIC90 (25 S. aureus strains; [23]) | MIC90 (25 S. aureus strains; [24]) | MIC90 (25 S. aureus strains; [25]) | MIC90 (25 S. aureus strains; [26]) | MIC ([2]; 100% human serum) | MIC90 (S. aureus strains; human blood/serum/plasma)
strong: Trailing (30 S. aureus strains; [37]) | Trailing (30 S. aureus strains; CAMHB, 0.5 mM DTT, Thawed) | Trailing (30 S. aureus strains; CAMHB, Fresh dilutions) | Trailing (30 S. aureus strains; CAMHB, Thawed (frozen-thawed dilution panels))
0.5-4: Range (30 S. aureus strains; [40])
0.25 to 2 µg/mL: Range (25 S. aureus strains; [6]) | Range (25 S. aureus strains; [7]) | Range (25 S. aureus strains; [9]) | Range (25 S. aureus strains; [10]) | Range (25 S. aureus strains; [17]) | Range (25 S. aureus strains; [18]) | Range (25 S. aureus strains; [19]) | Range (25 S. aureus strains; [20]) | Range (25 S. aureus strains; [21]) | Range (25 S. aureus strains; [22]) | Range (25 S. aureus strains; Final pH: Adjusted to pH 7.0) | Range (25 S. aureus strains; Final pH: Adjusted to pH 8.0) | Range (25 S. aureus strains; Final pH: Unadjusted (pH 7.4)) | Range (25 S. aureus strains; [23]) | Range (25 S. aureus strains; [25]) | MIC range (25 S. aureus strains; [26])
128: MIC50 (30 S. aureus strains; [37]) | MIC90 (30 S. aureus strains; [37]) | MIC50 (30 S. aureus strains; CAMHB, 0.5 mM DTT, Thawed)
2 µg/mL: MIC90 (25 S. aureus strains; [13]) | MIC90 (25 S. aureus strains; [14])
64 µg/mL: MIC (S. aureus ATCC 700699; standard conditions, CA-MHB / MHBII) | MIC90 (S. aureus strains; CA-MHB)
6-9.7 pH: pH range of activity [1]
8 µg/mL: MIC90 [3]
no significant effect: effect of prolonged incubation of panels at −80° C. on MIC (25 S. aureus strains; assayed up to 365 days)
1: MIC^90 (25 S. aureus strains; [28]) | MIC^90 (25 S. aureus strains; [30]) | MIC^90 (25 S. aureus strains; [32]) | MIC^90 (25 S. aureus strains; [33]) | MIC90 (30 S. aureus strains; [38]) | MIC90 (30 S. aureus strains; [39])
0.25 to 1 µg/mL: Range (25 S. aureus strains; [5]) | Range (25 S. aureus strains; [8]) | Range (25 S. aureus strains; [11]) | Range (25 S. aureus strains; [12]) | Range (25 S. aureus strains; [15]) | Range (25 S. aureus strains; [16]) | Range (25 S. aureus strains; [24])
16-55 °C: temperature range of activity [1]
0.5 to 2 µg/mL: Range (25 S. aureus strains; [13]) | Range (25 S. aureus strains; [14])
2-128: Range (30 S. aureus strains; CAMHB, Fresh dilutions)
8-256: Range (30 S. aureus strains; [37])
256: MIC90 (30 S. aureus strains; CAMHB, 0.5 mM DTT, Thawed)
~70%: S. aureus strains showing trailing (or Eagle) effect (S. aureus strains; broth microdilution (BMD))
0.5 µg/mL: MIC50 (25 S. aureus strains; [5]) | MIC50 (25 S. aureus strains; [6]) | MIC50 (25 S. aureus strains; [7]) | MIC50 (25 S. aureus strains; [8]) | MIC50 (25 S. aureus strains; [9]) | MIC50 (25 S. aureus strains; [10]) | MIC50 (25 S. aureus strains; [11]) | MIC50 (25 S. aureus strains; [12]) | MIC50 (25 S. aureus strains; [15]) | MIC50 (25 S. aureus strains; [16]) | MIC50 (25 S. aureus strains; [17]) | MIC50 (25 S. aureus strains; [18]) | MIC50 (25 S. aureus strains; [19]) | MIC50 (25 S. aureus strains; [20]) | MIC50 (25 S. aureus strains; [21]) | MIC50 (25 S. aureus strains; [22]) | MIC50 (25 S. aureus strains; Final pH: Adjusted to pH 7.0) | MIC50 (25 S. aureus strains; Final pH: Unadjusted (pH 7.4)) | MIC50 (25 S. aureus strains; [23]) | MIC50 (25 S. aureus strains; [24]) | MIC50 (25 S. aureus strains; [25]) | MIC50 (25 S. aureus strains; [26])
0.25-1: Range (25 S. aureus strains; [27]) | Range (25 S. aureus strains; [29]) | Range (25 S. aureus strains; [34])
~5 h: half-life in MHB [4]
0.5: MIC^50 (25 S. aureus strains; [27]) | MIC^90 (25 S. aureus strains; [27]) | MIC^50 (25 S. aureus strains; [28]) | MIC^50 (25 S. aureus strains; [29]) | MIC^90 (25 S. aureus strains; [29]) | MIC^50 (25 S. aureus strains; [30]) | MIC^50 (25 S. aureus strains; [31]) | MIC^90 (25 S. aureus strains; [31]) | MIC^50 (25 S. aureus strains; [32]) | MIC^50 (25 S. aureus strains; [33]) | MIC^50 (25 S. aureus strains; [34]) | MIC^90 (25 S. aureus strains; [34]) | MIC^50 (25 S. aureus strains; [35]) | MIC^90 (25 S. aureus strains; [35]) | MIC50 (30 S. aureus strains; [38]) | MIC50 (30 S. aureus strains; [39])
none: Trailing (30 S. aureus strains; [36]) | Trailing (30 S. aureus strains; [38]) | Trailing (30 S. aureus strains; [39]) | Trailing (30 S. aureus strains; [40]) | Trailing (30 S. aureus strains; CAMHB, 25% horse serum, Thawed)
0.125-2: Range (30 S. aureus strains; [36])
